B1: PHTF1 (parent)
chain: SRHLNSQVKKTTTRWCHIVRDSDS

Variants of: B1
Test: protein stability index of a GFP-peptide fusion (GPS, HEK-293T) (PSI 1-6); higher = more stable
Details: c terminus: a fixed tail appended
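Also: lentivirally expressed fusions sorted by FACS into six bins by GFP to DsRed ratio, PSI derived from sequencing read proportions per bin multiplied by bin number.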

Protein stability index: each site, then its substitutions
R14: P 2, S 1.91, C 1.87, H 2.17, N 2.94, L 2.14, Y 2.05, K 2.3, D 3, G 2.57, T 1.71, I 1.94, E 3.35, M 1.6, Q 2.67, F 2.04, V 3.08, A 3.02, W 1.65
S1: A 2.52, H 1.46, L 1.51, V 1.84, D 3.06, M 2.52, C 2.07, R 2.51, P 2.47, Q 2.38, F 1.76, K 2.26, T 2.09, I 1.23, E 1.8, Y 2.25, N 2.51, G 2.06, W 2.1
K9: S 2.26, C 2.13, F 1.83, D 2.23, G 2.55, Q 2.02, Y 1.68, V 3.18, L 2.21, H 1.81, I 1.97, P 2.71, E 2.33, M 2.37, R 2.16, T 1.83, N 2.35, A 2.48, W 1.85
S6: M 1.93, C 1.7, K 2.38, F 1.45, H 2.29, I 2.22, L 1.68, E 2.31, N 2.44, Y 2.86, Q 2.61, A 2.29, R 2.17, G 1.98, P 3.03, T 1.83, V 1.94, W 2.5, D 2.88
H3: W 1.53, T 2.23, C 1.95, Q 2.28, N 1.69, V 2.36, F 2.77, K 2.02, P 1.64, A 2.23, E 2.52, D 1.58, R 1.79, S 1.5, L 2.08, M 2.15, G 2.21, I 1.25
K10: T 1.98, N 2.72, Y 1.69, P 2.28, G 2.55, D 2.56, E 2.63, Q 2.19, F 1.78, I 1.61, V 2.71, H 2.29, L 1.8, C 2.11, R 1.8, A 2.76, S 2.87, W 1.97, M 2.37
T12: K 1.82, C 2.19, M 1.76, S 2.62, V 1.94, F 1.66, A 2.1, Y 1.5, G 1.64, W 2.36, E 2.68, R 2.09, L 1.53, P 2.71, D 2.91, H 1.31, I 1.93, Q 2.12, N 1.76
W15: P 3.86, Y 3.36, I 3.36, T 3.87, L 2.77, F 3.71, A 2.37, G 3.24, C 2.74, S 3.84, R 3.94, E 4.88, Q 4.35, N 3.56, K 3.78, V 3.06, H 3.53, M 3.22, D 4.57
L4: Y 1.76, R 1.95, V 2.03, T 2.06, Q 2.12, G 1.8, K 2.56, F 3.09, A 2.58, D 1.99, H 2.15, E 2.56, N 2.05, W 2.25, P 2.44, M 1.76, S 2.29, I 2.75
T13: I 1.41, K 1.76, W 1.82, G 2.75, H 2.02, N 1.91, C 2.73, P 1.8, Y 1.72, D 2.76, A 2.31, R 2.14, F 1.81, M 2.1, V 3.04, E 2.94, S 2.05
H17: R 2.58, I 1.65, L 1.7, E 1.29, S 2.31, N 2.43, G 2.65, A 1.42, C 1.66, M 1.91, K 2.59, P 2.31, Y 2.42, V 1.71, W 2.62, T 1.91, Q 1.71, F 2.75
T11: Q 2.43, M 2.39, W 2.02, D 2.97, R 2.12, A 3.08, Y 2.41, K 2.16, E 2.11, L 1.58, G 2.48, N 1.79, S 1.83, V 1.13, F 1.94, C 3.08, I 1.67, P 2, H 2.95
V8: D 2.06, E 2.79, L 2.07, I 2.35, R 1.78, F 2.57, Q 1.98, K 1.79, M 2.08, P 2.18, G 2.57, A 2.26, T 2.1, N 1.78, W 1.34, H 2.22, C 2.6, Y 1.57, S 2.61
R2: D 2.3, I 2.2, T 2.15, N 1.87, F 2.56, A 2.38, P 1.89, C 2.12, L 2.17, S 2.23, W 2.08, H 1.96, K 2.53, Q 2.4, V 1.87, M 2.13, G 1.69, Y 2, E 2.35
C16: W 2.27, K 2.99, A 1.3, H 3.28, I 1.84, S 2.14, Q 2.3, N 3.65, T 2.01, Y 2.56, E 2.34, L 2.79, G 3.53, F 2.07, D 3.34, P 2.57, R 2.86
N5: S 1.92, I 2.73, D 2.53, M 1.45, K 1.8, A 2.19, T 2.38, V 1.29, W 2.27, G 2.79, Q 1.92, C 2.33, F 2.02, H 2.56, Y 2.16, L 1.92, P 2.22, E 1.59, R 3.93
Q7: G 1.89, D 2.65, S 2.8, F 1.22, N 1.78, R 2, H 3.08, T 2.82, M 1.73, K 2.45, L 1.84, A 2.6, P 2.69, C 2.08, V 1.4, W 2.84, I 2.17, E 2.4, Y 1.68
I18: H 2.52, C 2.13, Q 3.09, L 3.42, P 3.35, W 2.15, T 2.17, E 3.1, A 2.43, D 3.92, F 2.82, V 1.73, G 3.15, R 3.06, M 2.34, S 3.95, K 2.77, N 3.3
